Article PMC2174947, “Transcriptional regulation of human eosinophil RNases by an evolutionary- conserved sequence motif in primate genome”

Target: T1, GST-MAZ (UniProt P56270 1-477)
T1 sequence: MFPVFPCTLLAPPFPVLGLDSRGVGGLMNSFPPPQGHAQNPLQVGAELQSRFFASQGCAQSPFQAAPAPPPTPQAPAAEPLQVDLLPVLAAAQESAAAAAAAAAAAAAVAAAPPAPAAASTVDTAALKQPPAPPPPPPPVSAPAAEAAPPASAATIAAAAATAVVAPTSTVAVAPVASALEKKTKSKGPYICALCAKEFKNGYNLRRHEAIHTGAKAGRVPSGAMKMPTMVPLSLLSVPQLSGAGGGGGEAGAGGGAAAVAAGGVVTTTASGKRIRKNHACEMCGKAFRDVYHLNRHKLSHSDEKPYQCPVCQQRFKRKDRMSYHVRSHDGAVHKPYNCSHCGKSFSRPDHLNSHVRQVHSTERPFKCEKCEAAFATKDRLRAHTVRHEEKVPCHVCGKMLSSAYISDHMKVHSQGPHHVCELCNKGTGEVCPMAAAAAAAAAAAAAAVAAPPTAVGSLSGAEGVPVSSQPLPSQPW
Assay: EMSA; EMSA: 10 mM Tris-HCl pH 7.5, 50 mM NaCl, 5 mM MgCl2, 1 mM EDTA, 10% glycerol, 1 ug poly(dI-dC), 30 C 30 min; DAPA: 20 mM HEPES pH 7.6, 10 mM (NH4)2SO4, 1 mM EDTA, 1 mM DTT, 1% Tween 20, 100 mM KCl, 4 C
Settings: protein: recombinant; label: 32P 5' end; blunt

B1: wt 34-nt EMSA probe (dsDNA)
DNA 1: GCCAAGAGCCAGACCCTCCCTCTGGGCTCTGCTGGCCCA
DNA 2: TGGGCCAGCAGAGCCCAGAGGGAGGGTCTGGCTCTTGGC
B1: binds.
